Data taken from US6319897A, “Peptides which inhibit complement activation” (priority 1999, dated 2001).

How the values were obtained:
[1] = target: T1, C3c (Homo sapiens, UniProt P01024); assay: Phage clone binding ELISA, immobilized C3c; conditions: 2 μg coated, 1 hour 22° C.
T1 construct: C3c, 135,300 Mr fragment of C3 generated using elastase; from tissue; host or cells: normal human plasma; C3 treated with elastase, Mono Q purified
Protocol: (§1) Microtiter wells were coated with 2 μg of C3, C3b, C3c or C3d, saturated with blocking buffer, washed with PBS (pH 7.4) containing 0.05% Tween 20, and incubated 1 hour at 22° C. with a positive (clone 9) or negative (clone 1) clone. Binding was inhibited by adding 250 μg/ml of aggregated C3 in PBS, pH 7.4. Bound M13 phage particles were detected by peroxidase-coupled anti-M13 antibody and ABTS peroxidase substrate. Diagonally lined bars represent peroxidase-coupled anti-M13 antibody bound non-specifically to the plate; cross-hatched bars represent clone 9 bound to C3 or C3 fragments; horizontally lined bars represent clone 9 bound to C3 or C3 fragments in the presence of 250 μg/ml of aggregated C3; and vertically lined bars represent clone 1 bound to C3 or C3 fragments.
(§2) The C3-binding phage was isolated by screening the phage library described in Example 3. Microtiter well plates (Nunc Inc., Naperville, Ill.) were coated overnight with 20 μg of C3b in PBS at 4° C. and blocked with PBS containing 1% BSA for 30 minutes at 22° C. […] The amplified phage mixture obtained after the third round of amplification was plated, and positive phage were identified by confirming their binding to C3b in an ELISA, in which bound phage were detected by peroxidase-labeled anti-M13 antibody (Pharmacia). […]

[2] = target: T2, C3 (Homo sapiens, UniProt P01024); assay: Phage clone binding ELISA, immobilized C3; conditions: 2 μg coated, 1 hour 22° C.
T2 construct: purified from normal human plasma in accordance with well known procedures; from tissue; host or cells: normal human plasma (C3, factor B)
T2 sequence (P01024 23-667 limits assumed): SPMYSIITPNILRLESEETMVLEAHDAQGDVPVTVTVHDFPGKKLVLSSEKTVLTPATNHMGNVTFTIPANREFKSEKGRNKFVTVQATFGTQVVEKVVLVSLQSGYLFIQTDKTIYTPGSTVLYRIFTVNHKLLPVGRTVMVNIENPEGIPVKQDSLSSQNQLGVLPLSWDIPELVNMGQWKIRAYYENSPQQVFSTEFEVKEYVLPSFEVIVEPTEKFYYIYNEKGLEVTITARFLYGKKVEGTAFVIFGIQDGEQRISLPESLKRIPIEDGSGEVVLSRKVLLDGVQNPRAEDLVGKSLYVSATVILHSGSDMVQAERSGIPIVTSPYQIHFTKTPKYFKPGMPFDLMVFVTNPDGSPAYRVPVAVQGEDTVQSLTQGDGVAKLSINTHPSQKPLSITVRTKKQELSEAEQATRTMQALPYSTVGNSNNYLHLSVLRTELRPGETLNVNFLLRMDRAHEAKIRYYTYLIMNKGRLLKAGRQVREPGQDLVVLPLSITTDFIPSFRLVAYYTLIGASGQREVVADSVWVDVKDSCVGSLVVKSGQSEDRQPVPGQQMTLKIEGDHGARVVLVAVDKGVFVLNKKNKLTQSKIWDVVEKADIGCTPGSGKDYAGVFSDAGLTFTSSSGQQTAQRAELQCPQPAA
T2 sequence (P01024 672-1663 limits assumed): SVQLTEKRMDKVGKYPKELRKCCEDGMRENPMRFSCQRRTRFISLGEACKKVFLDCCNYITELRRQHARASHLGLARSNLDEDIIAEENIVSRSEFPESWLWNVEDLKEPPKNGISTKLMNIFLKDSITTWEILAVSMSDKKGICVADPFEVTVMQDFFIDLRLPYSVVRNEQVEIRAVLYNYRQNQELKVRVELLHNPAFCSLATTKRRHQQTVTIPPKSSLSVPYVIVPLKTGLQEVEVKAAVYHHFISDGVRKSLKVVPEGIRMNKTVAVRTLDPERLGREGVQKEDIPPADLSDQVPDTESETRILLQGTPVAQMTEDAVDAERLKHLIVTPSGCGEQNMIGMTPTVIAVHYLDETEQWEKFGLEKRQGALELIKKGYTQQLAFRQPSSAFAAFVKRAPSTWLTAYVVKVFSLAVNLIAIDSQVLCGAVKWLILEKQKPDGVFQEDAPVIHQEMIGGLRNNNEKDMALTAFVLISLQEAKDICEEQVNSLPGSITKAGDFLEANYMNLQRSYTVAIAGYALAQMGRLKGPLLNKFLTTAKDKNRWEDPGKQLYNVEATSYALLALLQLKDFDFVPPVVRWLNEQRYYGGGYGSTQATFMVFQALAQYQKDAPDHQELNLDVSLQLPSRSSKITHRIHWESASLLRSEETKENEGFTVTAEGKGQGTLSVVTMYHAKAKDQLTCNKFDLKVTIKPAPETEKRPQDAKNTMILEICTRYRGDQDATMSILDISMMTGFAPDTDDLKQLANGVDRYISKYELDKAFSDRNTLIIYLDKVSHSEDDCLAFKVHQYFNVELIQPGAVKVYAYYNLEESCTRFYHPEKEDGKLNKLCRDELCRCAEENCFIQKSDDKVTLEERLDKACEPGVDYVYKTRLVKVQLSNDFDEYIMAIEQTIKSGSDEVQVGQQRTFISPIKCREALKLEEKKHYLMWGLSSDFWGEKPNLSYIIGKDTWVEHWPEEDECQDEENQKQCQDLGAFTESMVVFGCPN
Protocol: as §1, §2

[3] = target: T3, C3d (Homo sapiens, UniProt P01024); assay: Phage clone binding ELISA, immobilized C3d; conditions: 2 μg coated, 1 hour 22° C.
T3 construct: C3d, 35,000 Mr fragment of C3 generated using elastase; from tissue; host or cells: normal human plasma; C3 treated with elastase, Mono Q purified
T3 sequence (P01024 1002-1303 limits assumed): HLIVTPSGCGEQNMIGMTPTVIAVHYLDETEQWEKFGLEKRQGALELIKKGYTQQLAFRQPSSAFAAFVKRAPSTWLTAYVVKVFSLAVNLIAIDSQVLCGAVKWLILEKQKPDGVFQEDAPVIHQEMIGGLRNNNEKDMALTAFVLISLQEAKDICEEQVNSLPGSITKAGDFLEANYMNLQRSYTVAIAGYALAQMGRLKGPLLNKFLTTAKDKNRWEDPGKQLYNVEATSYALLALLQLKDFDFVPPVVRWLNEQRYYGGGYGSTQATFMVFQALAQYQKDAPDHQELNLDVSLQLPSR
Protocol: as §1, §2

[4] = target: T4, C3b (Homo sapiens, UniProt P01024); assay: Phage clone binding ELISA, immobilized C3b; conditions: 2 μg coated, 1 hour 22° C.
T4 construct: from tissue; host or cells: normal human plasma; C3 cleaved with trypsin, Mono Q purified
T4 sequence (P01024 23-667 limits assumed): as the sequence (P01024 23-667 limits assumed) above
T4 sequence (P01024 749-1663 limits assumed): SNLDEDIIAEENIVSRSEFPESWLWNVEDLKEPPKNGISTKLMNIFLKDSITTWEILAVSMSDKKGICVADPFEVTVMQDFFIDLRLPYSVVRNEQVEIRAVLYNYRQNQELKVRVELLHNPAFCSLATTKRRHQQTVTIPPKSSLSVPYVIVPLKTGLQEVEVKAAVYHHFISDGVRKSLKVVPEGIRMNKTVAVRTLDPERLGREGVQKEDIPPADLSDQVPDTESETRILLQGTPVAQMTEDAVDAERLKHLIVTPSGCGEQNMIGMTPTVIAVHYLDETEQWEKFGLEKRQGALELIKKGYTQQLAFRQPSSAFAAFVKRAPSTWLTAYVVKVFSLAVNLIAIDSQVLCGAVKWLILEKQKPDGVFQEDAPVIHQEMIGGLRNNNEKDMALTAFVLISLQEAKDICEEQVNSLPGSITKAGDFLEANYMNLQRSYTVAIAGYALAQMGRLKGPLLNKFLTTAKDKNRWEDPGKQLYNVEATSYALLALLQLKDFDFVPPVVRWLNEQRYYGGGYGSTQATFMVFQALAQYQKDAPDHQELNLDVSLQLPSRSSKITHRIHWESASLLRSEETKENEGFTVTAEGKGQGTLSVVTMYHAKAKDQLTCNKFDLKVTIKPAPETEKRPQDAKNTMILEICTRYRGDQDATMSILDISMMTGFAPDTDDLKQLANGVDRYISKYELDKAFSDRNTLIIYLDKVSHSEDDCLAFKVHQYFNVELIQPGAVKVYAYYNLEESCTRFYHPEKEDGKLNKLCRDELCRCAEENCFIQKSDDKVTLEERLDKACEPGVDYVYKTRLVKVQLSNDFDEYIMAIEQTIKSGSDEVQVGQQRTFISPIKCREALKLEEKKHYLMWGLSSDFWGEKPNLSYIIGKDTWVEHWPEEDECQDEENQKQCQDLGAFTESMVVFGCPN
Protocol: as §1, §2

[5] = system: classical pathway-mediated hemolytic activity (thioester of C3); conditions: read-out: 50% inhibitory concentration, classical pathway-mediated hemolytic activity; cited from earlier work
[6] = system: alternative pathway-mediated hemolytic activity (thioester of C3); conditions: read-out: 50% inhibitory concentration, alternative pathway-mediated hemolytic activity; cited from earlier work
[7] = system: complement; conditions: in vivo; cited from earlier work

T1 sequence (P01024 23-667 limits assumed): as the sequence (P01024 23-667 limits assumed) above
T1 sequence (P01024 749-954 limits assumed): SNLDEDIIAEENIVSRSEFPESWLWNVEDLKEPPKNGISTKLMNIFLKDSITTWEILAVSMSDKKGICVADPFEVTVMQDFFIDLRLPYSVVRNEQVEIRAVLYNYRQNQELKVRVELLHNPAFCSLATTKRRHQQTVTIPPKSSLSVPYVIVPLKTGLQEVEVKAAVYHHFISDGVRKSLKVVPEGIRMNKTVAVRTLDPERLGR
T1 sequence (P01024 1321-1663 limits assumed): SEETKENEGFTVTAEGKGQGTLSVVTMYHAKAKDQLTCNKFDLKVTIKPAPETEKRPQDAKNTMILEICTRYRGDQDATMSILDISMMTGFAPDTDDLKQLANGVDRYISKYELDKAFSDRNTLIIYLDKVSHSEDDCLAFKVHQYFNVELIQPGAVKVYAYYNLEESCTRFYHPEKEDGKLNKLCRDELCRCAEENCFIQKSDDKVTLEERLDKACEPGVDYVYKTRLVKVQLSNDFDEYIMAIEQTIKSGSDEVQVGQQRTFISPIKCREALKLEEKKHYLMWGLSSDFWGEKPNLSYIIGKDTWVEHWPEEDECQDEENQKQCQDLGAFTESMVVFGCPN

SSICVVQDWGHHRCTAGHMANLTSHASAIR [Clone 9]
binding of phage clone to C3c [1]: bound | binding of phage clone to C3 [2]: bound | binding of phage clone to C3d [3]: not to C3d | binding of phage clone to C3b [4]: bound

O=C(NO)c1ccccc1O [salicyl hydroxamate]
IC50 [5]: 280 µM | IC50 [6]: 33 µM

sCR1: soluble form of CR1 (complement receptor 1)
complement suppression in complement-dependent disease models [7]: suppresses complement
